From patent US20170028021A1, “COMPOSITIONS AND METHODS FOR TREATING NEURODEGENERATIVE DISEASE” (MYELIN THERAPEUTICS, INC., priority 2015, published 2017)

Tested on: primary mouse OPs
Experiment: Proliferation of oligodendrocyte precursor (OP) cultures, scoring NG2+ and NG2+/BrdU+ cells
Type: cell-based
Conditions: TLQP-21 3 μM, AQEE-30 3 μM, BDNF 50 ng/μl, analyzed 48 hours later, vs DMSO
Experimental: The growth factor VGF was of particular interest because it is reported to be highly expressed in OPs. Furthermore, its upregulation upon exercise activates the anti-depressant response in mammals, and maintains BDNF expression in a VGF-BDNF positive feedback loop. […] VGF is cleaved to produce numerous C-terminal bioactive peptides including TLQP-62, TLQP-21, and AQEE-30, amongst others. As such, oligodendrocyte precursor (OP) cultures were treated with well-characterized peptides that trigger BDNF production TLQP-21 (3 μM), AQEE-30 (3 μM), BDNF (50 ng/μl), or DMSO along with the proliferation marker BrdU and then analyzed 48 hours later by scoring the number of NG2+/BrdU+ cells. In parallel, the total number of NG2+ cells was counted to assess for endogenous proliferation. […] Indeed, VGF protein levels are robust early in the OP differentiation cascade (FIG. 11).
Mouse OPs were isolated from the cortices of PO WT neonates by expansion within mixed glial culture for 8 days, purified, and subsequently differentiated as an OP-enriched culture. At DIV1 post-purification, cells were treated with DMSO, BDNF, VGF AQEE-30 or VGF TLQP-21 at 3 uM and allowed to grow for an additional 48 hrs. […] DAPI stains all nuclei. […] Scale bar, […]. FIG. 10C depicts quantitation of the average dendritic length 48 hrs post-peptide treatment. **P<0.01, n=4 independent coverslips per condition. […]

B1: BDNF: brain-derived neurotrophic factor, comparison treatment in OP cultures (protein, UniProt P23560 19-247, looked up)
Neurotrophic factor BDNF …: APMKEANIRGQGGLAYPGVRTHGTLESVNGPKAGSRGLTSLADTFEHVIEELLDEDQKVRPNEENNKDADLYTSRVMLSSQVPLEPPLLFLLEEYKNYLDAANMSMRVRRHSDPARRGELSVCDSISEWVTAADKKTAVDMSGGTVTVLEKVPVSKGQLKQYFYETKCNPMGYTKEGCRGIDKRHWNSQCRTTQSYVRALTMDSKKRIGWRFIRIDTSCVCTLTIKRGR
total number of NG2+ cells: no significant differences
total number of proliferating Ng2+/BrdU+ OPs (with BrdU): no significant differences
